The results in this text go back to article PMC8213124, “Chemokines act as phosphatidylserine-bound “find-me” signals in apoptotic cell clearance” (PLoS Biology, 2021).

This data set deals with the molecule itself. Put plainly: cross-linking; 50 ng chemokine in 20 mM HEPES, 30 min at room temperature without or with phospholipid (brain PE, PC, PS or heart CL; 1:8 chemokine:total lipid molar ratio), then 0.25 mM BS3 for 30 min; SDS-PAGE and immunoblot with anti-chemokine antibodies.

B1: CXCL11 (natural protein, human, UniProt O14625 22-94, looked up)
chain: FPMFKRGRCLCIGPGVKAVKVADIEKASIMYPSNNCDKIEVIITLKENKGQRCLNPKSKQARLIIKKVERKNF
notes: human chemokine CXCL11, untagged recombinant protein; source: bought: Peprotech, recombinant, produced in Escherichia coli
With B1, the binding result is recorded as “binds”.

B2: CXCL9 (natural protein, human, UniProt Q07325 23-125, looked up)
chain: TPVVRKGRCSCISTNQGTIHLQSLKDLKQFAPSPSCEKIEIIATLKNGVQTCLNPDSADVKELIKKWEKQVSQKKKQKNGKKHQKKKVLKVRKSQRSRQKKTT
notes: human chemokine CXCL9, untagged recombinant protein; source: bought: Peprotech, recombinant, produced in Escherichia coli
As to B2, the binding result is reported as “binds”.
